Results published in US20230012273A1 (Boehringer Ingelheim, published 2023).

Legend:
[1] = target: T1, full-length human SIRPγ (NP_061026.2) on cells (human, UniProt Q9P1W8 29-387); assay: flow cytometry, CHO cells
T1 construct: also called CHO-hSIRPγ; γ WT

[2] = target: T2, full-length human SIRPβ1 D→H on Expi-CHO cells (human, UniProt O00241 30-398); assay: flow cytometry, Expi-CHO cells
T2 construct: the entry already carries the change (PDDV to PDHV)
Method: These cells are blocked with donkey IgG and incubated on ice with increasing concentrations of antibodies for 60 minutes, washed and stained with AF647-conjugated donkey F(ab′)₂ anti-human IgG antibodies. Stained cells are washed, fixed, and analyzed by flow cytometry. Median fluorescent intensity is determined and used as a measure of antibody binding.

[3] = target: T3, recombinant human SIRPγ extracellular domain (ECD)/His protein (NP_061026.2) (human, UniProt Q9P1W8 29-360); assay: ELISA, coated SIRPγ ECD/His
T3 construct: coated on ELISA plates; also called recombinant hSIRPγ; not shown: His-tag

[4] = target: T4, full-length human SIRPαV2 (CAA71403.1) on cells (human, UniProt P78324 31-504); assay: flow cytometry, competition with CD47 tetramer, CHO-K1 cells; * inhibition plateaus at <100%
T4 construct: one molecule for CHO-K1 and Expi-CHO transfectants (CAA71403.1) and for endogenous V2 on THP-1 cells and on CD14+ monocytes of V2/V2 donors; also called CHO-hSIRPαV2; αV2 WT
Method: Cells are washed, fixed, and analyzed by flow cytometry. Median fluorescent intensity is determined and used as a measure of CD47 binding.

[5] = target: T5, cynomolgus SIRPβ1v3 extracellular domain + His-tag (XP_005568593) (cynomolgus monkey); assay: SPR, Ab captured, ECD-His analyte
T5 construct: also called Cyno SIRPβ1v3; cynoSIRPβ1v3
T5 chain: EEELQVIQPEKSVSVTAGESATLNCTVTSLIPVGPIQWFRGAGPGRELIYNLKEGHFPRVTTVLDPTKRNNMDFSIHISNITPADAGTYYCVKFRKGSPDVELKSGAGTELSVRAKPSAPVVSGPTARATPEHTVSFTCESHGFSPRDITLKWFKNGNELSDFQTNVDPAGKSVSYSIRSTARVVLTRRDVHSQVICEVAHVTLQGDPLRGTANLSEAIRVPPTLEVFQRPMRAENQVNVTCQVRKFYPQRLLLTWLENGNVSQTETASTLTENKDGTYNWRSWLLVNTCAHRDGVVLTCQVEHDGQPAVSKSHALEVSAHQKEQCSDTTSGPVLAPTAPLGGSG
Method in brief: (§1)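 In HBS-EP+ (1×), captured antibodies are exposed to a twofold concentration series of SIRP extracellular domain carrying a His tag, using 300 s contact at 30 μl/min and a 600 s dissociation window.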

[6] = target: T6, mouse SIRPα extracellular domain + His-tag (NP_031573) (mouse, UniProt P97797 32-373); assay: SPR, Ab captured, ECD-His analyte
T6 chain: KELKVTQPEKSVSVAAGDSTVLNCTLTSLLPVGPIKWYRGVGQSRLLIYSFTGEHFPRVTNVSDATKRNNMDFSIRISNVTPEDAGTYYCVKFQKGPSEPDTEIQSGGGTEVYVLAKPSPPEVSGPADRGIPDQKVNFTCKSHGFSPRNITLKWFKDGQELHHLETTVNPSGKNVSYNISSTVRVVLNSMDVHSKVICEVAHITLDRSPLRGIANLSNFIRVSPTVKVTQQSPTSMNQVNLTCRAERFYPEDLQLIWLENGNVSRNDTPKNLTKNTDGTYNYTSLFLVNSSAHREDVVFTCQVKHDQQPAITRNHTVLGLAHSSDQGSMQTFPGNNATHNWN
Method in brief: as §1

[7] = target: T7, cynomolgus SIRPα extracellular domain + His-tag (EGM_02252) (cynomolgus monkey); assay: SPR, Ab captured, ECD-His analyte
T7 construct: also called CySIRPα EGM_02252; cynoSIRPα
T7 chain: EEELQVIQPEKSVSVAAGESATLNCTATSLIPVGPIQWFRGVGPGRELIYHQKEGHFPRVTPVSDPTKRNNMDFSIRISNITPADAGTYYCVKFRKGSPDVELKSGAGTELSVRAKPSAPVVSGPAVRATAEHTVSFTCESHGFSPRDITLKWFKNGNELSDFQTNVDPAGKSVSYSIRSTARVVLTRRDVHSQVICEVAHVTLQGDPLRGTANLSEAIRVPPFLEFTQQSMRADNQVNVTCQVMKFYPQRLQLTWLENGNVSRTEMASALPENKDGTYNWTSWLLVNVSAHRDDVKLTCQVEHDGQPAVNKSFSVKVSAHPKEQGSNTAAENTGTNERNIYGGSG
Method in brief: as §1

[8] = target: T8, cynomolgus SIRPα extracellular domain + His-tag (NP_001271679) (cynomolgus monkey); assay: SPR, Ab captured, ECD-His analyte
T8 construct: also called CySIRPα NP_001271679; cynoSIRPα
T8 chain: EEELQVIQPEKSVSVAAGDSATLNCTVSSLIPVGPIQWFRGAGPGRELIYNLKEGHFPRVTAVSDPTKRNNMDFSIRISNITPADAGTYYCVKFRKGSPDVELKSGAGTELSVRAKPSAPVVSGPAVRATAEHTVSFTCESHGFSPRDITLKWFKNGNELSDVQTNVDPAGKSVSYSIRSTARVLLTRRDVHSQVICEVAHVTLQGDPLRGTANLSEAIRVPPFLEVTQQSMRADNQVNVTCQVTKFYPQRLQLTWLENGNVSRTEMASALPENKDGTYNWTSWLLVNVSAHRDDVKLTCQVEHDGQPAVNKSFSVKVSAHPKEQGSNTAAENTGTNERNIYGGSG
Method in brief: as §1

[9] = target: T9, full-length human SIRPγ (NP_061026.2) on cells (human, UniProt Q9P1W8 29-387); assay: flow cytometry, primary human CD3+ T cells
T9 construct: on CHO and Expi-CHO cells; endogenous on primary human CD3+ T cells; also called γ WT
Method in brief: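 PBMCs blocked with donkey IgG were incubated on ice for 60 min with increasing antibody concentrations, then detected with AF647 donkey F(ab′)₂ anti-human IgG. After fixation, median fluorescence intensity of the gated CD3+ population served as the binding measure.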

B1: Anti-SIRPα antibody KWAR23 (antibody, V domains shown)
VH: EVQLQQSGAELVKPGASVKLSCTASGFNIKDYYIHWVQQRTEQGLEWIGRIDPEDGETKYAPKFQDKATITADTSSNTAYLHLSSLTSEDTAVYYCARWGAYWGQGTLVTVSS
VL: QIVLTQSPAIMSASPGEKVTLTCSASSSVSSSYLYWYQQKPGSSPKLWIYSTSNLASGVPARFSGSGSGTSYSLTISSMEAEDAASYFCHQWSSYPRTFGAGTKLELK
EC50 [1]: 2.7 nM | EC50 [2]: 0.01 nM | EC50 [3]: 0.1 nM

B2: Antibody E (antibody, human IgG1, kappa, L234A L235A)
heavy: not shown
light: DIVMTQSPLSLPVTPGEPASISCKSSQSLLYSNGYNYLDWYLQRPGQSPQLLIYLGSNRASGVPDRFSGSGSGTDFTLKISRVEAEDVGVFYCMQALQTPLTFGGGTKVEIKRTVAAPSVFIFPPSDEQLKSGTASVVCLLNNFYPREAKVQWKVDNALQSGNSQESVTEQDSKDSTYSLSSTLTLSKADYEKHKVYACEVTHQGLSSPVTKSFNRGEC
IC50 [4]: 0.7 nM

B3: Antibody A (antibody, human IgG1, kappa, L234A L235A)
heavy: not shown
light: DIQMTQSPSSLSASVGDRVTITCRASQDINNYLAWFQQKPGKAPKSLIYTASSLHSGVPSKFSGSGSGTDFTLTISSLQPEDFATYYCQQYVSYPYTFGQGTKLEIKRTVAAPSVFIFPPSDEQLKSGTASVVCLLNNFYPREAKVQWKVDNALQSGNSQESVTEQDSKDSTYSLSSTLTLSKADYEKHKVYACEVTHQGLSSPVTKSFNRGEC
Kd [5]: 201 nM | binding result [6]: no binding | Kd [7]: 201 nM | Kd [8]: 453 nM

B4: Antibody A10 (antibody, human IgG1, kappa, L234A L235A)
heavy: not shown
light: DIQMTQSPSSLSASVGDRVTITCRASQDINNYLAWFQQKPGKAPKSLIYTASSLHSGVPSKFSGSGSGTDFTLTISSLQPEDFATYYCQQYVSYPYTFGQGTKLEIKRTVAAPSVFIFPPSDEQLKSGTASVVCLLNNFYPREAKVQWKVDNALQSGNSQESVTEQDSKDSTYSLSSTLTLSKADYEKHKVYACEVTHQGLSSPVTKSFNRGEC
binding result [9]: no binding
